# T1: sENG-Fc (soluble endoglin Fc fusion) (human, UniProt P17813 26-586)
# T1 construct: soluble endoglin (ENG, CD105) fused to Fc, recombinant human protein from R&D Systems; Construct limits are known only through the catalogue number; source: bought: R&D Systems (Cat.# 6578-EN), recombinant human protein
# T1 sequence (looked up): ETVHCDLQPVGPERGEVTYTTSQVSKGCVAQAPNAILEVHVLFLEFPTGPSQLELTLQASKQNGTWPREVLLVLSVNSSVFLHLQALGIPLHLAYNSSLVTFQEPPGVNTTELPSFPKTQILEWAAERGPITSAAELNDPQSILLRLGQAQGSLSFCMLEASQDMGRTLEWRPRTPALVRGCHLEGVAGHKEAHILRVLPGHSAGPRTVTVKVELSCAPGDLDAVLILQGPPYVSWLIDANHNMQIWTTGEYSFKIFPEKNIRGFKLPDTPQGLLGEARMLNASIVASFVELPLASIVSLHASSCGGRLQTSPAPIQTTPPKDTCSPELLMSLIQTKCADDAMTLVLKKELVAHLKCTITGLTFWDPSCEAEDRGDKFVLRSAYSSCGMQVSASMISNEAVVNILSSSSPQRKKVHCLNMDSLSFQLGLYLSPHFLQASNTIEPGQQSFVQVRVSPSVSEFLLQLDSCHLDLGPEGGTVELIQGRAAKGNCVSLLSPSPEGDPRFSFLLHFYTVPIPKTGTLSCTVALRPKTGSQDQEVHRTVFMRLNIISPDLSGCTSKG
# Target: T1, sENG-Fc (soluble endoglin Fc fusion)
# Assay: ELISA; ActRIIA-Fc coated on MaxiSorp plates (1 ug/mL in PBS, overnight, 4 °C), blocked with 1% BSA; BMP9 (15 ng/mL) added with increasing concentrations of sENG(M), sENG(D) or sENG-Fc; bound BMP9 detected with BMP-9 DuoSet ELISA reagents
# Conditions: both partners purified
binder,measurement,value
"Bone morphogenetic protein 9 (BMP9) (ligand, human, UniProt Q9UK05 320-429, looked up, BMP9 (GDF2), recombinant human protein from R&D Systems; source: bought: R&D Systems (Cat.# 3209-BP), recombinant human protein) SAGAGSHCQKTSLRVNFEDIGWDSWIIAPKEYEAYECKGGCFFPLADDVTPTKHAIVQTLVHLKFPTKVGKACCVPTKLSPISVLYKDDMGVPTLKYHYEGMSVAECGCR",binding result,binds

# — PMC10126157, “High concentrations of soluble endoglin can inhibit BMP9 signaling in non-endothelial cells” (Scientific Reports, 2023)
